In the supplement of paper PMC10126150:
± gives the standard deviation of the averaged measurements.

System: ATP
Assay: switch fluorescence ratio, 500 uM ATP over buffer (Cy3 cluster intensity, sum of 5 cycles each) (fold (ratio)); higher = stronger signal-on switching upon ATP binding; sequences stand for … in TCGTCGGCAGCGTCAGATGTGTATAAGAGACAGTTTTTTTTTTTTTTTTTTTTTTTTT…TC
Conditions: aptamer strand: ATP DNA aptamer (quencher-CACCTGGGGGAGTATTGCGGAGGAAGG + anchor), 100 nM annealed; ATP concentration: 500 uM
Procedure, shortened: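 Clusters with intensities outside 100-1000 RFU were excluded. The remaining Cy3-labelled switching-strand clusters on a modified Illumina MiSeq flow-cell had been annealed to 100 nM quencher-labelled ATP aptamer and imaged in selection buffer, then after 15 min with 500 uM ATP at 22 °C, for five cycles separated by NaOH stripping and re-annealing. The fluorescence ratio, averaged per switch-domain sequence, is each cluster's summed target-cycle Cy3 intensity over its summed buffer-cycle Cy3 intensity.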
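Further: ATP exposure 15 min at 22 °C before imaging.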

Row | Sequence | switch fluorescence ratio
1 | GTGGATTTTT | 0.991 ± 0.015
2 | GTGGCACCTA | 0.988 ± 0.018
3 | GTGGCAGACC | 1.01 ± 0.012
4 | GTGGCAGGCA | 0.984 ± 0.033
5 | GTGGCATGTT | 0.9788 ± 0.0038
6 | GTGGCCATGC | 1.01 ± 0.025
7 | GTGGCCTGGA | 1.01 ± 0.025
8 | GTGGCGCTTT | 0.976 ± 0.023
9 | GTGGCGTAGG | 0.981 ± 0.021
10 | GTGGCTAACG | 0.972 ± 0.06
11 | GTGGCTGGGT | 0.981 ± 0.015
12 | GTGGGAATAT | 1.001 ± 0.0083
13 | GTGGGACAGC | 1.02 ± 0.052
14 | GTGGGACAGG | 1.01 ± 0.015
15 | GTGGGAGGAG | 0.985 ± 0.031
16 | GTGGGAGTTT | 1.01 ± 0.043
17 | GTGGGATAAA | 0.969 ± 0.011
18 | GTGGGATCTG | 0.9894 ± 0.008
19 | GTGGGCGGCC | 0.99 ± 0.028
20 | GTGGGCGGGA | 1.07 ± 0.14
21 | GTGGGCGGGC | 1.02 ± 0.093
22 | GTGGGGACGG | 0.977 ± 0.053
23 | GTGGGGAGGG | 1 ± 0.016
24 | GTGGGGAGTG | 1.01 ± 0.045
25 | GTGGGGATCC | 1.025 ± 0.0046
26 | GTGGGGCGCG | 1.02 ± 0.038

Row | Sequence | switch fluorescence ratio
27 | GTGGGGGAGA | 0.9868 ± 0.0059
28 | GTGGGGGATG | 1 ± 0.033
29 | GTGGGGGG | 0.999 ± 0.029
30 | GTGGGGGTGT | 1.05 ± 0.055
31 | GTGGGGGTTG | 0.976 ± 0.043
32 | GTGGGGTAGA | 1.05 ± 0.021
33 | GTGGGGTCAA | 0.9985 ± 0.0085
34 | GTGGGGTCGC | 0.978 ± 0.012
35 | GTGGGGTTTC | 0.977 ± 0.032
36 | GTGGGTAATT | 0.995 ± 0.033
37 | GTGGGTAGAG | 1 ± 0.057
38 | GTGGGTAGTG | 0.996 ± 0.038
39 | GTGGGTAGTT | 0.99 ± 0.076
40 | GTGGGTATAC | 1.01 ± 0.026
41 | GTGGGTCGTT | 1 ± 0.031
42 | GTGGGTGGTG | 1.015 ± 0.0046
43 | GTGGGTTCGG | 1 ± 0.031
44 | GTGGGTTTTT | 1.01 ± 0.032
45 | GTGGTAATTG | 0.972 ± 0.016
46 | GTGGTAGAGC | 0.991 ± 0.033
47 | GTGGTATCAC | 1 ± 0.011
48 | GTGGTCGGGT | 0.974 ± 0.044
49 | GTGGTCTGCC | 0.958 ± 0.0044
50 | GTGGTGCCAA | 1.01 ± 0.026
51 | GTGGTGGGGG | 0.992 ± 0.034
52 | GTGGTGTACT | 0.985 ± 0.0081

Row | Sequence | switch fluorescence ratio
53 | GTGGTTCCAA | 0.9932 ± 0.0063
54 | GTGGTTCTTG | 0.99 ± 0.019
55 | GTGGTTGTGC | 0.97 ± 0.035
56 | GTGGTTTAAC | 1.04 ± 0.0087
57 | GTGGTTTGCT | 1.01 ± 0.013
58 | GTGGTTTGGA | 0.989 ± 0.031
59 | GTGGTTTGGG | 0.988 ± 0.06
60 | GTGGTTTTGG | 1 ± 0.035
61 | GTGTAAAAGC | 1.03 ± 0.011
62 | GTGTAAATTT | 0.991 ± 0.04
63 | GTGTAAGGGG | 0.9943 ± 0.0094
64 | GTGTAAGTGT | 0.9821 ± 0.0046
65 | GTGTAATTAG | 0.982 ± 0.035
66 | GTGTACTGGG | 0.993 ± 0.017
67 | GTGTACTTAC | 1.2 ± 0.022
68 | GTGTATCACG | 1.015 ± 0.0048
69 | GTGTATTTTG | 0.996 ± 0.014
70 | GTGTCAAAGA | 0.984 ± 0.02
71 | GTGTCTAGTA | 1 ± 0.02
72 | GTGTCTGGGA | 0.985 ± 0.024
73 | GTGTCTTTGA | 0.986 ± 0.055
74 | GTGTGACGGT | 0.949 ± 0.019
75 | GTGTGAGCGG | 0.9901 ± 0.0052
76 | GTGTGAGGTT | 0.989 ± 0.019
77 | GTGTGAGTGC | 1.06 ± 0.024
78 | GTGTGATGTT | 0.99 ± 0.042

Row | Sequence | switch fluorescence ratio
79 | GTGTGCACGC | 1.05 ± 0.065
80 | GTGTGCAGTG | 0.954 ± 0.01
81 | GTGTGGAAGA | 1.019 ± 0.0054
82 | GTGTGGGAGG | 1.04 ± 0.028
83 | GTGTGGGAGT | 0.9963 ± 0.0016
84 | GTGTGGGATC | 1.013 ± 0.0039
85 | GTGTGGGCAG | 0.973 ± 0.0026
86 | GTGTGGGGCC | 0.973 ± 0.012
87 | GTGTGGGGGA | 1.02 ± 0.04
88 | GTGTGGGTAT | 0.985 ± 0.016
89 | GTGTTAGACT | 0.9618 ± 0.0092
90 | GTGTTAGTCC | 1.05 ± 0.11
91 | GTGTTATAAT | 0.986 ± 0.021
92 | GTGTTATATA | 0.986 ± 0.013
93 | GTGTTATCAC | 0.984 ± 0.054
94 | GTGTTATCGC | 1.011 ± 0.0015
95 | GTGTTATGAT | 0.9574 ± 0.0068
96 | GTGTTATGCA | 1.01 ± 0.021
97 | GTGTTGAGAA | 0.98 ± 0.015
98 | GTGTTGATTT | 0.9625 ± 0.0065
99 | GTGTTGGACC | 0.9782 ± 0.00099
100 | GTGTTGGGTG | 1.01 ± 0.011
101 | GTGTTGTATT | 0.988 ± 0.015
102 | GTGTTTATGG | 0.984 ± 0.011
103 | GTGTTTGAAA | 0.998 ± 0.027
104 | GTGTTTGGAA | 0.993 ± 0.012

Row | Sequence | switch fluorescence ratio
105 | GTGTTTGGCG | 0.9981 ± 0.0051
106 | GTGTTTTATA | 0.977 ± 0.026
107 | GTGTTTTGTC | 1.02 ± 0.068
108 | GTTAAAAAAA | 0.958 ± 0.021
109 | GTTAAAAAGG | 0.998 ± 0.022
110 | GTTAAATTAG | 0.9875 ± 0.0056
111 | GTTAAATTCA | 1 ± 0.024
112 | GTTAACGGAC | 1.17 ± 0.098
113 | GTTAACTCGG | 0.985 ± 0.047
114 | GTTAACTCTG | 0.9801 ± 0.0084
115 | GTTAAGGGCC | 0.99 ± 0.011
116 | GTTAATATAG | 0.992 ± 0.035
117 | GTTAATTATT | 1.06 ± 0.085
118 | GTTAATTTGC | 0.984 ± 0.04
119 | GTTAATTTTT | 1.01 ± 0.043
120 | GTTACAAGAC | 1.21 ± 0.048
121 | GTTACCCAGT | 1.049 ± 0.0098
122 | GTTACCGGAC | 1.5 ± 0.034
123 | GTTACCGTTT | 1.02 ± 0.053
124 | GTTACTGCGG | 0.98 ± 0.021
125 | GTTAGCGCTT | 0.974 ± 0.025
126 | GTTAGCGGTT | 0.9884 ± 0.0034
127 | GTTAGCTAGG | 1.04 ± 0.026
128 | GTTAGGTTAT | 1 ± 0.018
129 | GTTAGTAAGG | 1.01 ± 0.041
130 | GTTAGTACTA | 1 ± 0.038

Row | Sequence | switch fluorescence ratio
131 | GTTAGTGTAG | 0.9975 ± 0.0011
132 | GTTAGTTAAA | 0.968 ± 0.02
133 | GTTAGTTACT | 1.01 ± 0.057
134 | GTTAGTTTGC | 1.01 ± 0.021
135 | GTTATAACG | 1 ± 0.05
136 | GTTATATGAC | 0.999 ± 0.012
137 | GTTATCACTG | 1.02 ± 0.014
138 | GTTATCAGAT | 1.02 ± 0.021
139 | GTTATCAGGG | 0.995 ± 0.026
140 | GTTATCGCTA | 1.07 ± 0.04
141 | GTTATCTTAG | 1.01 ± 0.025
142 | GTTATGCGCG | 1.03 ± 0.013
143 | GTTATGGCTG | 1.05 ± 0.021
144 | GTTATGGTAC | 1.03 ± 0.028
145 | GTTATGGTTT | 0.986 ± 0.031
146 | GTTATGTTGT | 1.01 ± 0.04
147 | GTTATTATGT | 0.994 ± 0.077
148 | GTTATTCATG | 0.988 ± 0.018
149 | GTTATTCCGG | 1.038 ± 0.0043
150 | GTTATTCTCT | 0.971 ± 0.015
151 | GTTATTGGGG | 1.01 ± 0.024
152 | GTTATTTGTT | 1.068 ± 0.0071
153 | GTTATTTTAA | 0.9846 ± 0.0027
